Measured values: patent US7314716B2, “Gustducin γ subunit materials and methods” (Mount Sinai School of Medicine, priority 1999, dated 2008)

B1: Gγ5: G protein γ5 subunit (protein)
chain: SGSSSVAAMKKVVQQLRLEAGLNRVKVSQAAADLKQFCLQNAQHDPLLTGVSSSTNPFRPQKVC
B2: cone γ8 subunit: the cone transducin α subunit partner (protein)
chain: MAQDLSEKDLLKMEVEQLKKEVKNTRIPISKAGKEIKEYVEAQAGNDPFLKGIPEDKNPFKEKGGCLIS
modifications: ends and bridges not checked
notes: the cone transducin α subunit partner
B3: Gustducin γ subunit: γ subunit of the taste cell G protein gustducin, 67 amino acids, designated Gγ13 (protein, listed as Mus musculus)
chain: MEEWDVPQMKKEVESLKYQLAFKREMSSKTIPELLKWIEDGIPKDPFLNPDLMKNNPWVEKAKCTIL
modifications: ends and bridges not checked
notes: γ subunit of the taste cell G protein gustducin, 67 amino acids, designated Gγ13
B4: Gγ1: G protein γ subunit which interacts with the rod transducin α subunit (protein)
chain: PVINIEDLTEKDKLKMEVDQLKKEVTLERMLVSKCCEEFRDYVEERSGEDPLVKGIPEDKNPFKELKGGC

Experiments:
gustducin α subunit = biological target: T1, gustducin α subunit (Rattus norvegicus, UniProt P29348); test: Trypsin protection assay of G protein α and γ subunit interaction; type: binding; settings: in vitro translated γ and α subunits mixed 3:1, without β subunit
T1 construct: made in house; host or cells: cell-free in vitro transcription/translation (Promega TNT system)
Source text: The interaction was confirmed using a trypsin protection assay that detects the direct interaction of G protein α and γ subunits. The assay is based on the fact that γ subunits, in the absence of β subunits, can interact directly with α subunits, and that this interaction apparently dictates which βγ dimer associates with which α subunit. See Rahmatullah & Robishaw, J. Biol. Chem., 269: 3574–3580 (1994).
To monitor G protein α and γ subunit interactions, gustducin γ and α subunit DNAs were transcribed and translated in vitro using the Promega TNT system, mixed in a 3:1 ratio, and incubated for 15 minutes at 30° C. in buffer G [15 mM Na-HEPES pH 8.0, 250 mM NaCl, 0.6 mM EDTA, 0.6 mM DTT, 5 mM MgCl2, 0.1 mM GDP and 0.3% polyoxyethylene 10-lauryl ether (LPX)]. The assay was initiated by adding Tosyl-L-phenylalanine chloromethyl ketone (TPCK) treated-trypsin (0.5 μg), incubated for 1 hour at 30° C., and terminated with 3 μg soybean trypsin inhibitor (SBTI) (15 min, at 30° C.). The samples were analyzed on 12% SDS-PAGE, gels were fixed, enhanced with En^3Hance (NEN), dried and exposed to X-ray film.
Other Gγ subunits were also tested in the assay.

β1 subunit = biological target: T2, β1 subunit (Homo sapiens, UniProt P62873); test: Trypsin assay of βγ dimer formation; type: binding; settings: cotranslated in vitro with β1 subunit
T2 construct: made in house; host or cells: cell-free in vitro transcription/translation
Procedure: To determine which β and gustducin γ subunit combinations were capable of forming dimers another trypsin assay was utilized. β monomers are cleaved at numerous sites by trypsin, whereas βγ dimers are cleaved at a single site, resulting in the appearance of a 26-kDa fragment of the β subunit. See Schmidt et al., J. Biol. Chem., 267: 13807–13810 (1992).
Plasmid DNAs (0.5 μg) encoding β1 subunit was transcribed and translated in vitro, in the presence or absence of plasmid DNA (0.5 μg) coding for the gustducin γ subunit. Aliquots (10 μl) of the cotranslated βγ mix or β subunit alone were digested by TPCK-treated trypsin (1 μg) in a final volume of 20 μl (with 50 mM Na-HEPES pH 8.0). After incubation for 1 hour at 30° C., the digestions were stopped by addition of 6 μg SBTI as described above. Protected fragments of β subunits were analyzed on 15% SDS-PAGE. Detection was as described above.
In the assay, β1 formed dimers with gustducin γ subunit that were protected from trypsin digestion.

T1 sequence (P29348 2-354 limits assumed): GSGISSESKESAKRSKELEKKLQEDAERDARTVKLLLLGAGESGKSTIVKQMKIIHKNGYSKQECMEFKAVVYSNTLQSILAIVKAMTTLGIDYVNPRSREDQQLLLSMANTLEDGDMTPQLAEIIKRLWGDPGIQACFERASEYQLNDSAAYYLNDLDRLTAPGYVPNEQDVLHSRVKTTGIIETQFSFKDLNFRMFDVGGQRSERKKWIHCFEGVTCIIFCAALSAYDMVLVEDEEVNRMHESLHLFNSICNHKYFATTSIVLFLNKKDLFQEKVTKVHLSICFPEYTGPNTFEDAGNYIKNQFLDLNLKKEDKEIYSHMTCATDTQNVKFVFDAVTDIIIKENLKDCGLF
T2 sequence (P62873 whole entry): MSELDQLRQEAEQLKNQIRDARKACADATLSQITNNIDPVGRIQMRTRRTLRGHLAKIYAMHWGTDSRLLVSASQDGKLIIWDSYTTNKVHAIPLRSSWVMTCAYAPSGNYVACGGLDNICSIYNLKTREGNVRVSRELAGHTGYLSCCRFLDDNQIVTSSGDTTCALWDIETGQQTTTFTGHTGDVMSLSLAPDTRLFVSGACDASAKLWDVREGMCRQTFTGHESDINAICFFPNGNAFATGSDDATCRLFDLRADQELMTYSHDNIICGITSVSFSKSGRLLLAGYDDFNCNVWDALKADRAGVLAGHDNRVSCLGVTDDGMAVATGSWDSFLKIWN
T2 sequence (Q9P2W3 whole entry partner): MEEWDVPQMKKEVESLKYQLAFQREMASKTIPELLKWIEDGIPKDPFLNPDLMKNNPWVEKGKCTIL

| Molecule | protection of gustducin α subunit from tryptic digestion (gustducin α subunit) | dimer formation with β1, protected from trypsin digestion (β1 subunit) |
| --- | --- | --- |
| B1 | unable to protect |  |
| B2 | unable to protect |  |
| B3 | protected gustducin α subunit from tryptic digestion to a significant extent | formed dimers |
| B4 | appeared to interact with gustducin α subunit, albeit to a lesser extent |  |
